In publication PMC11355779:

What was measured:
[1] = biological target: ClC-3c, C-terminally GFP-tagged (mouse)
[2] = biological target: ClC-3c, C-terminally GFP-tagged (mouse); assay: FRET or BRET; FLIM-FRET in co-transfected HEK293T cells 24 h after transfection; GFP donor (488 nm), mCherry acceptor; efficiency from the donor lifetime (phasor plot) against donor-only cells

Chain of ClC-3c, C-terminally GFP-tagged (mouse) (P51791 whole entry): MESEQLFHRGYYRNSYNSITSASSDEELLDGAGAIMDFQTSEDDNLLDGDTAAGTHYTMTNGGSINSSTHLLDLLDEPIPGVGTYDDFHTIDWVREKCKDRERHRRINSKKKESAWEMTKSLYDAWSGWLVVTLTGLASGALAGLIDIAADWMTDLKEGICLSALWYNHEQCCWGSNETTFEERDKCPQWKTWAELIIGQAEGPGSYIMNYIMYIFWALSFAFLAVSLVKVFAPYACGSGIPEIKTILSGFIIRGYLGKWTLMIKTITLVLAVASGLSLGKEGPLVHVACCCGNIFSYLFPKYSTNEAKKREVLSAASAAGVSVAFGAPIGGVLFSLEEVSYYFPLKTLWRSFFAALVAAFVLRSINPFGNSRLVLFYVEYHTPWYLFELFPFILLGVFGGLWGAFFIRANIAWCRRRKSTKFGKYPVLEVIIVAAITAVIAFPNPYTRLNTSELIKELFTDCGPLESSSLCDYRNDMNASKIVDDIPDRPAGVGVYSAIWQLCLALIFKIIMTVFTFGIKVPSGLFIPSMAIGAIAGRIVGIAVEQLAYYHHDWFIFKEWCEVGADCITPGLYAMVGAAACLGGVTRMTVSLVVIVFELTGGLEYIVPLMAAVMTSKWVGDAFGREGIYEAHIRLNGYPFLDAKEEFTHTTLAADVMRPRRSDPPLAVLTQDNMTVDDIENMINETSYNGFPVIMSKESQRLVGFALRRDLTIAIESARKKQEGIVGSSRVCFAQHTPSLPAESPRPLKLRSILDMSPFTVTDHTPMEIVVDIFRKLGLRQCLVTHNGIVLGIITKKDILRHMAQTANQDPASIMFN

- fast time constant of ClC-3 current activation in HEK cells co-transfected with TMEM9B (double exponential fit, 500 ms pulses) [1]: 21 ms
- reduction of ClC-3 activity (whole-cell currents) in HEK cells by co-expression of TMEM9B [1]: 70%
- slow time constant of ClC-3 current activation in HEK cells co-transfected with TMEM9B (double exponential fit, 500 ms pulses) [1]: 120 ms
- FRET efficiency [2]: 0.17
Substance: TMEM9 Domain Family Member B (TMEM9B), C-terminally mCherry-tagged (from UniProt Q9JJR8 35-199) (natural protein)
